Assay results published in US7655771B1, “Polymorphisms in the human cyp3a4 and cyp3a7 genes and their use in diagnostic and therapeutic applications” (PGx Health, LLC, priority 1999, dated 2010).
“And” between values parts separate entries of the source, which are not always exact repeats. Equal entries are not always repeated.

Assays:
[1] = system: CYP3A4; experiment: Testosterone hydroxylase activity of wild-type and mutant CYP3A4 proteins (reconstituted with NADPH-cytochrome P450 reductase and cytochrome b5); type: biochemical, human
Method: (§1) Mutants were expressed in E. coli TOPP3 cells. Cultures of each strain were started from single colonies in 2-ml of LB media containing ampicillin (50 μg/ml) and tetracycline (15 μg/ml) and grown overnight at 37° C. with shaking. Larger, 20-ml cultures of each sample were inoculated and grown as described for the 2-ml cultures. Starter cultures (15 ml) were inoculated into 250-ml of TB media containing ampicillin (50 μg/ml) and grown 2-3 hr at 37° C. at 250 rpm. δ-aminolevulinic acid (80 mg/L) and IPTG (1 mM) were added and the cultures grown 72 hr at 30° C. at 190 rpm. The cells were harvested, sonicated and CHAPS solubilized, and the protein was purified on Talon Metal Affinity resin from Clontech (Palo Alto, Calif.). Final P450 content was measured by reduced CO difference spectra (Omura, J Biol Chem 239 (1964), 2370-2378), and each protein was visualized on an 8.5% SDS PAGE gel stained with Coomassie blue. Western Blot analysis of CYP3A4 wild-type, M2, M5 and M7 was performed by resolving 1 pmol of 3A4 wildtype and M5, and 8 μl of M2 and M7 total protein sample on an 8.5% SDS PAGE gel. The samples were then transferred to nitrocellulose and probed with an anti-3A12 polyclonal antibody known to cross-react with CYP3A4 (Ciaccio, Arch Biochem Biophys 271 (1989), 284-99).
(§2) Following the reconstitution with NADPH-cytochrome P450 reductase and cytochrome b5, the catalytical activities of M1, M4, M5 and M6 variants were measured using testosterone, progesterone and 7-BFC as substrates (Tables 5-7).

[2] = system: CYP3A4; experiment: Progesterone hydroxylase activity of wild-type and mutant CYP3A4 proteins; type: biochemical, human
Method: as §1, §2

[3] = system: CYP3A4; experiment: 7-Benzyloxy-4-(trifluoromethyl)coumarin (7-BFC) debenzylase activity of wild-type and mutant CYP3A4 proteins; type: biochemical, human
Method: as §1, §2

[4] = system: CYP3A4; experiment: Western blot with anti-CYP3A12 polyclonal antibody; parameters: species or system human
Method: FIG. 7: Immunoblot of wild-type CYP3A4 (3A4), R130Q (M2), T363M (M5), and P416L (M7). P450 (1 pmol) was loaded into each lane, transferred to nitrocellulose, and probed with anti-3A12 IgG as described in Materials and Methods.
as §1
The effect of the protein variants on the expression level and catalytical activity of CYP3A4 was investigated using a bacterial CYP3A4 expression system. Sequence variants were introduced into the pSE3A4H expression vector (Harlow, J Biol Chem 272 (1997), 5396-402) which encodes for a CYP3A4 protein identical to that found in most Caucasians. […] Mutants M1-M8 were expressed in E. coli as described in Example 5, the expression of the CYP3A4 holoenzyme assessed by measuring reduced CO difference spectra, and the protein purified. […]

[5] = system: CYP3A4 holoenzyme; experiment: Expression of CYP3A4 holoenzyme in E. coli, reduced CO difference spectra; parameters: species or system human; conditions: for Detectable P450 holoprotein, in words: E. coli expression, reduced CO difference spectra
Method: as §1
The effect of the protein variants on the expression level and catalytical activity of CYP3A4 was investigated using a bacterial CYP3A4 expression system. Sequence variants were introduced into the pSE3A4H expression vector (Harlow, J Biol Chem 272 (1997), 5396-402) which encodes for a CYP3A4 protein identical to that found in most Caucasians. No other, unwanted mutations were introduced into the CYP3A4 insert or the promoter driving its expression as confirmed by sequencing. Mutants M1-M8 were expressed in E. coli as described in Example 5, the expression of the CYP3A4 holoenzyme assessed by measuring reduced CO difference spectra, and the protein purified. All but M2, M5 and M7 mutants were detectable at levels similar to CYP3A4. […] The expression of M2, M5, and M7 was further investigated by Western Blotting using an anti-CYP3A12 polyclonal antibody known to cross-react with CYP3A4 (Ciaccio, Arch Biochem Biophys 271 (1989), 284-99) as described in Example 5.

Substance | Testosterone hydroxylase metabolite profile compared with wild-type CYP3A4 [1] | Testosterone hydroxylase activity, 2β-OH ([1]; 25 μM testosterone) | Testosterone hydroxylase activity, 6β-OH ([1]; 25 μM testosterone) | Testosterone hydroxylase activity, 15β-OH ([1]; 25 μM testosterone) | Testosterone hydroxylase activity relative to wild-type CYP3A4 ([1]; 25 μM testosterone (lower steroid concentration)) [%] | Testosterone hydroxylase activity, 2β-OH ([1]; 400 μM testosterone) | Testosterone hydroxylase activity, 6β-OH ([1]; 400 μM testosterone) | Testosterone hydroxylase activity, 15β-OH ([1]; 400 μM testosterone) | Progesterone (steroid) hydroxylase metabolite profile compared with wild-type CYP3A4 [2] | Progesterone hydroxylase 6β/16α ratio ([2]; 25 μM progesterone) | Progesterone hydroxylase activity, 6β-OH ([2]; 25 μM progesterone) | Progesterone hydroxylase activity, 16α-OH ([2]; 25 μM progesterone) | Progesterone hydroxylase 6β/16α ratio ([2]; 150 μM progesterone) | Progesterone hydroxylase activity, 6β-OH ([2]; 150 μM progesterone) | Progesterone hydroxylase activity, 16α-OH ([2]; 150 μM progesterone) | 7-BFC debenzylase activity relative to CYP3A4 [3] [%] | Band in immunoblot [4] | Effect of mutation on expression of CYP3A4 holoenzyme (conclusion) [5] | Detectable P450 holoprotein, in words [5]
M1: CYP3A4 protein variant G56D (g.6004G>A, exon 3) [Mutant M1] | Neither M1 nor M4 mutant displayed alterations | <0.1, <0.1 nmol product/min/nmol protein | 5.1 nmol product/min/nmol protein and 4.8 nmol product/min/nmol protein | 0.2, 0.2 nmol product/min/nmol protein | 53 | 5.4 nmol product/min/nmol protein and 6.9 nmol product/min/nmol protein | 32.1, nmol product/min/nmol protein and 32.2^b nmol product/min/nmol protein | 1.2 nmol product/min/nmol protein and 1.1 nmol product/min/nmol protein | Neither M1 nor M4 mutant displayed alterations | 5.6, 5.6 | 7.8, nmol product/min/nmol protein and 7.9^b nmol product/min/nmol protein | 1.4, 1.4 nmol product/min/nmol protein | 5.1, 5.1 | 21.3, nmol product/min/nmol protein and 21.3^b nmol product/min/nmol protein | 4.2, 4.2 nmol product/min/nmol protein | 137 |  |  | 
M2: CYP3A4 protein variant R130Q (g.13908G>A, exon 5) [Mutant M2] |  |  |  |  |  |  |  |  |  |  |  |  |  |  |  |  | Bands of the expected size | abolish | no detectable P450 holoprotein
M7: CYP3A4 protein variant P416L (g.22026C>T, exon 11) [Mutant M7] |  |  |  |  |  |  |  |  |  |  |  |  |  |  |  |  | Only a very faint band | abolish | no detectable P450 holoprotein
